The results in this text go back to patent US20030064070A1.

For the test, the target named is recombinant human TNFα (rhTNF) (human) (UniProt P01375). In words: cell-based or functional assay.
Chain of UniProt P01375 (P01375 77-233 limits assumed): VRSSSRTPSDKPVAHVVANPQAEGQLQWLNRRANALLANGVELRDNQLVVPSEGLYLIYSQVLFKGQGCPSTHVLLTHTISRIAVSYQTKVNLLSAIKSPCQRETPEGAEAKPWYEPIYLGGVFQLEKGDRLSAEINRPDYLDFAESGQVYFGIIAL

B1: chimeric mouse/human IgG1 anti-platelet mAb (7E3) (antibody, INN chains, looked up, V domains shown)
VH: EVQLQQSGTVLARPGASVKMSCEASGYTFTNYWMHWVKQRPGQGLEWIGAIYPGNSDTSYIQKFKGKAKLTAVTSTTSVYMELSSLTNEDSAVYYCTLYDGYYVFAYWGQGTLVTVSA
VL: EIVLTQSPVTLSVTPGDSVSLSCRASRDISNNLHWFQQTSHESPRLLIKYASQSMSGIPSRFSGSGSGTDFTLSINSVETEDFGMYFCQQTNSWPYTFGGGTKLEIK
modifications: IgG1
For B1, the IL-6 in supernatant of FS-4 fibroblasts, TNF 0.3 ng/ml, antibody 4 µg/ml was 1.6 ng/mL; the IL-6 in supernatant of FS-4 fibroblasts, TNF 1.5 ng/ml, antibody 4 µg/ml was 1.96 ng/mL; the IL-6 in supernatant of FS-4 fibroblasts, TNF 7.5 ng/ml, antibody 4 µg/ml was found to be 2.16 ng/mL.
